# Laboratory results: the domain aggregation screens of Martell et al. (2025)
# Assay: soluble fraction after stress (log2 fold change); higher = more stays soluble; pooled small domains, quantitative proteomics
# Details: stress: 50 degC
# Summary of the method: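 Quantitative proteomics served as the high-throughput read-out for pooled custom libraries of small protein domains. Each was stressed at 50°C. Aggregation propensity is expressed as the base-two log fold change in soluble protein after stress. A higher value means a larger share of the protein remains in solution.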
row,Sequence,soluble fraction (log2)
1,HMEDETAKVLRLLAENNGYLPYNDKSDPTDIYAFFGMSKKAFKMTTGNLYKQKKIQFTQTGIQLIE,-0.347
2,HMTAIKAGDLVKITGTKYYGGQTIPGWVKNQNWYVQEVSGDRAVINKNESGTNAIMSPIRVSDLTPVS,0.183
3,HMVSATKAFVNGGNIVVSSPKATRVAVYNVAGQKVAEQAFAGKATIKASDFAKGIYVLKFNDNTVLKLT,-0.518
4,HMKTMEQSYIGRKIILDENVEDSALIKFEGIYWTFKSVSGPLKKGTEVEIIGIEGNKILIKNK,-0.198
5,HMTETIPVSERLFRYLFEEKGKRVQKIQQTSHARVRMERSPYSVVVSGTKDAVEAAMESLKATEKELLEA,0.15
6,HMNGAVAEQARKQLMAALKASEFIAEEKLDEWLDALALPEDKRTAIVDAVDELDYEEAISELEN,0.0153
7,HMGKTRSTDRTRRAILDAASDLMGKHGTSVSLARIAEAAGMSKGGLLHHFPSRNDLIRALGED,0.189
8,HMSYKDIKEASDTGTYRDEENNIDVKWQKLFNGHNEYFDIEAYRDGERVEINNQQADRYIYLIKQEMD,0.025
9,HMITDSSEIEAMVDALVKENPGQAEQYKDGNMKVAGWFIGQIMKVSKGKANPQLVGDLLKKKLG,0.353
10,HMGRELDLNQRVYDFIHDIADEVRTDEGTFSANQMMERFLFPGDLQSVPIGRLSGGERRRLYLLSVLMVKI,0.117
11,HMKPQKRYLFEEVLTFLKHNSEKSFNYKQLGAAMEISNESDRFTLLETLEELKHQGFVVEKEIGKYQAKE,-0.527
12,HMTTKYMVLVNWVKEKVRTNELKTGEKLYSEHEFSRMFHMSRQTVRHGISILERENIVERRQGSGTFIKDA,-3.06
13,HMSEPFDMAVPLTSGGRRLDQVLAELLPQHSRNRLQGWIRDGLLTLDGVTVTEPKRKLAGGEQLALLLP,-0.13
14,HMEQIFTELIMDGRVLGENLHRMGVDETWLLRQLRQQGYHSAREVFLAVADANKQVAVYPVS,-0.308
15,HMPSPSTLAKVDPFLLVTNADSLLMARPDDSELRAAIITAHINLAKTNNSVDHYKEVLKIEPQNALANYN,0.0175
16,HMNRQTGTVKWFNDAKGFGFITPESGPDLFVHFRSIQGAGFKSLQEGQRVTFVAVQGQKGMQADQVQA,-0.762
17,HMVDFHAAYSILRIAPGASWQEIQAAYEKLNDAWREDRYPQVPFWNEKAAFKRREVEQAYEKLRKFHALRH,-0.845
18,HMIPEILNGYTKWGDDEPFEDHAGPFYMKMMPSTGRHLSAFIPEQRHMNGGGFLHGGMLMSFADYALFVI,0.00747
19,HMPAFGALTLRQRDLVELIAQGLDNSQIAARLGLAEKTVRNHITMIFNKLEMENRSQVIVRARESGFGAVR,-1.53
20,HMGQVAKPPLKELGADPVTGKPMVLKDGRFGPYVTDGEYNASLRKDDDIETIGVERAAELLQIRREKGP,-0.081
21,HMKAAQDQDQAATLLQKATGVNQDQAKLAATVLFKEQSVTPIRQAIASGDYYQAYQDAKSLQQQ,-0.144
22,HMADLNFHQQIRSLPPEQQEILLLRFGQELTLRQIAQVTGVPLRTVQSRLRAALKKLKSQLEKEE,-0.39
23,HMSPLDSHLGRRIALRRQQLNTSAADLEKAISMVPGSVARFEAGRQSLNATQLFTLSRALDVPVLYFFEG,-0.534

row,Sequence,soluble fraction (log2)
1,HMAPNVEENSKLIGEIGMTLTPLRPSGIATINNRRVDVVSNGDFIDQDERVMVKRVQGARVVVIPV,0.109
2,HMEEEPALLRDLLAKTLEFGLIPQLSHHPALADRTQQLASAVRAAGSASALRNAAASLKSLWIDVDQ,-0.0318
3,HMKSIPKIKWNSTLENIKNFEYQDNFFESKEMYDLLVSFYKYGFVIIKNIPTNNNFIVKFANSIGS,-0.021
4,HMGNLEENFRLKAGTEDGAWEFIRYHLGKLPVVNESNGTAIVNAERQAFLLFDRMVAFHIQRGVMVPLSAP,0.0891
5,HMLTKAEEQVMDYLWKLEKAFVKDILDEFPEPKPAYTTVSTMVRILEKKGMVGYTAYGKNHQYYPL,-1.84
6,HMGSATAPDLKGLTYEQAQTKAEDAGYNIEKGEDVYDNDVEKGKVASQDPEAGAEAKEGSVITVNISK,-0.0349
7,HMSGNPLDTYYSKWSAEIKKGSPNAVISKEGDKYYVSIPGENRMAIIYENPHLIRMVNATRNIHVE,-0.168
8,HMDFYVILGVDRAASLSDVKRAYRRLARKHHPDINPGDPESDAFFMRVTEAYETLVDPDRRQEYDEHG,-1.03
9,HMGEKVIAVSGGFDPIHVGHLRMMQDAAQHGRLVVIVNSDEWLLKKKGYVFMPWEERAELIGAYDFVDE,-0.977
10,HMPPQPATQNTKAQVMQLAREKELMAGEGRGANVEALEKFANEHGISLRGMTEEQAEQLVKLLMEYTP,-0.258
11,HMHLDIGQLVQRILADIQVGKLADGQRKLPAEPVLMERYQVTRYTLRQALKQLSNMGYTYQMHGIGTFVRQ,-0.863
12,HMAMNLQETVLMQLRDLILRGTFEPGQRLSEQPLAERLKASRTPVRSALVTLEQEGLIEASETGKYLVRQ,-0.421
13,HMPLVIIRGIEGVFSSEEKAEAIRKVTDALVSVKGENVRGFAWVVFEEVKSGDWGIGGESITAEKVIMSL,-0.0828
14,HMENLVPVVVATTNIEPRTQITDAMVKVEQIPALGRNESMLEDPALVVGGYATGKIYAGQSFIQPMVSK,0.179
15,HMETGEDSLRRYFNSLPGSASKREILEDNPTVSQRTTERILQKLQAEGFIEKVGAARATRYRKVKQ,0.209
16,HMSSDEAEYKLLLGQEGVAKSPLRPSGVVDFSGRRLDVQTLGDFIESGETVVVKQVNGHRVLVERK,0.158
17,HMHGLNQNKPIPIADIVNSVNNYLTSLGKKTITDNSVLSNLKKAAKYLNTAYNLVLRPDSLNMTVTLL,0.0467
18,HMNVRRSRTHEKVTTYQGYDIFINKEPNQRGMFTSAPMRGDNEYSNLRGEGKSKQDAVNMTKEKIDEIAA,0.403
19,HMGNNSIDIKDVIYNLVEISQLQAFDIVKHFKTWENLVNKPDELDTVIDGDSDIVDRIKYKIKSLS,0.109
20,HMKEILTNESIIQFVKDKVSEEQIIYKINNSPIDFKLDVNSMVSLAKQNVSSTIIIAMENAMNN,-0.256
21,HMISENFVEAKILLTEDNRPKSLEILKDIIRQHDKVYSPLSLFLILDEDLEENKEIILEYFDLVLS,-0.185
22,HMLNPMILLTKGGENIRLDKFLSSHLSDLSRTQIQKMVKEGLVLVNGEPSKVGLKLDGSETIQYTLPK,-0.00634
23,HMGTLSLLVQKLMAVGLEGAKASEIVERFDRERIERQINALPSRKIKSSRTGFLIRAIELDIPVE,-2.09

row,Sequence,soluble fraction (log2)
1,HMGKRKDFTYTGNYFSEYKNQTFPSLSSFLKLVGKYENYGTIKRRVRFGWDIDEAILRENIN,-0.773
2,HMKLHFTINGVHYTWYKQFIRGIQIRELGNIPREDELYLDLPDGWKDDFIEDDEIVDLARPGVEHFISRAK,-1.78
3,HMGQGSAFVYYEVLPKQTEYSLTRKLGLGYADLLSLNPQLARGLQAGMVLKIPRDKAGNLEVKNDLILE,-0.271
4,HMDTPMQEAVLQRLRDKVAQAAAGSKLPTVRQLIADYGVGQHVIQAALEKLRTEGLITSHVGKGTFVG,0.447
5,HMRWAAIMGREVAAHSTPESLVEGKLHIRTDTTAWATQLRLMSADIVRRLNEVLGEGTVLEVDVRG,-1.96
6,HMKTGTTGLIGEIGVVKKALTPEGKVFVHGELWRAVSKTASPEGTLVQVIKINNLVLEVEKV,-1.47
7,HMTKYVEGQKYVFEFRDGTITIGTYLRTGEGNIYIKDLSGEDIYIPKIMIAQIHLATDDNVKGDEFWF,-0.353
8,HMADRDKYIIMGQQLLRAAFEHFGKKATDKALENAANKLRISDVPELYARLGSAELQPRDVINVIFPD,-0.0534
9,HMLMLTPGQVSNSLNVSTATVRRWSARFARHLSPQPPNRKRSYTPDDLATLARVRDLSASGTSLAQIDIAL,-2.51
10,HMKADIEQVQRAFDTLDPKNQQLVLDAMKAATAELDPNSDQFKTNTEFINDNQKALDRHAKAS,0.125
11,HMIQMRVKVPKNIAGGSLMGAHHFVKSALARTNPGGSTSNYKIQATDGTPLTLGDLTARQYDEVLIISG,0.0101
12,HMATRAEQMAKTHQAILDTARELFLRNGYDATSTRDIANAIGITQPALYHHFKDKEVIFLAVI,-0.172
13,HMNSKSFIFHIEDEEGIRLDVFLADNLPDVSRSYVQKLIDEEHVKVNGQSAKSRLKTVSGMEITVDVPAPK,-0.321
14,HMILSTNFFRHIVPKEYQTSYGTMKKWLTDHNVIGTNSIPQGIGYRIPTQGLSSTFSFKVVDVLPDR,-0.525
15,HMLPSELLAQQRIVVQPGHNLWRIARATYGRGARYTVIYQANREQIADPNRIFPGQVFALPAA,-0.121
16,HMKLSALRDKIKEHLLRQIQNGELQVGKTINLAALSRVTGISVTPIREALTQLEQAQVIQAVPNRGFVVA,0.00526
17,HMGLKDTEVYMPDVRGLIEEEAQTKLKASFLTMKVSYTSSDEVKKGYVISQAPSADSVVLKGASVTVIVS,-2.07
18,HMSESLLTAAGFKTIAATTPEQKRHLEWLHPDQVTAVQLTGQHYYVYPDVAKSQLFVGTPKEYQAYLALRT,-0.414
19,HMIGRRLKVARASAGLSLRELAARMDGVVTPQAIGKYERNEDMPGSRALMALASALGVSEGYLLSD,-0.831
20,HMVAPPILNITTHIFAEEADLRMVMINGVTRREGDSLGENHRLLEITERGLILIFHNKQYTLDV,-3.68
21,HMGPASTGAHQLGLKPGDEVTHRAWGEGVVTSTTGEGDRAEAVVDFDAVGEKRLLLAWAPLER,0.00864
22,HMDKSFLQSLHLIALGIVKNQMDPWELVNGWVEYYLKNKDKYIDHPNLKAVAVLKMKGLFIDHFRKS,-4.84
23,HMSAGKKSFTNSEFRRFLDALGEGLIVKHKKLGEGVVVEIRGDKAVIQFGDEQRLYELKTLYEYDLLR,-0.12
